Columns and labels:
[1] = biological target: T1, Neurotensin receptor NTS1 (HT29 cells/membranes) (human), P30989; experiment: competition, HT29 membranes; conditions: modification not given
[2] = biological target: T1, Neurotensin receptor NTS1 (HT29 …); experiment: competition, HT29 cells; conditions: modification not given

T1 sequence (P30989 whole entry): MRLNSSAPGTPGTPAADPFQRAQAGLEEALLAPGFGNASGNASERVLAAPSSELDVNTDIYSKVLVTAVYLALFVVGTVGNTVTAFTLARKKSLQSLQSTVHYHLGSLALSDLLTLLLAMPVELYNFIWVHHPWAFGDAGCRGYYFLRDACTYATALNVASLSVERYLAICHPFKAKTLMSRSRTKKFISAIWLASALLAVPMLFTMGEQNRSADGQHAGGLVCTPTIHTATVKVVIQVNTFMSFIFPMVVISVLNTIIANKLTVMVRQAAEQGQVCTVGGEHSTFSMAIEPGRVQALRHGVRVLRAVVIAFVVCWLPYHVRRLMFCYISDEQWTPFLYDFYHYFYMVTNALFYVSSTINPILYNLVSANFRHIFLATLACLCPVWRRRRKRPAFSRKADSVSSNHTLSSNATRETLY

Ki [1]	IC50 [2]	Binder
0.26 nM	2.46 nM	KPRRPYIL [NT-20.2]
0.072 nM	0.82 nM	KPRRPYIL [NT-20.1]
–	7.5 nM	KPRRPYIL [DOTA(Ga)-LB119]
–	14.1 nM	KPRRPYIL [DOTA(In)-LB119]
0.66 nM	6.73 nM	KPRRPYIL [DTPA(In)-NT-20.1]
–	9.9 nM	KPRRPYIL [DOTA(Y)-LB119]
1.55 nM	41.2 nM	KPRRPYIL [DTPA(In)-NT-20.2]
